According to US8969060B2, “Modified glucose dehydrogenase” (Ikeda Food Research Co., Ltd., priority 2011, dated 2015):

Key:
[1] = Relative enzymatic activity of GLD (DCIP/1-m-PMS, plate reader, yeast culture supernatant) with 1,10-phenanthroline present; assay type: biochemical; settings: site-specific mutants, inhibitor final concentration 1 mM
Outline: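 Yeast transformants grown in YPD, 30° C., 24 h; diluted culture supernatant assayed in phosphate buffer pH 7.0 with D-glucose, DCIP and 1-m-PMS, DCIP absorbance change at 600 nm. Relative activity (%) = activity with 1 mM 1,10-phenanthroline (final, replacing methanol) divided by activity without it.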

[2] = Relative enzymatic activity of GLD (DCIP/1-m-PMS, plate reader, yeast culture supernatant) with proflavin hydrochloride present; assay type: biochemical; settings: site-specific mutants, inhibitor final concentration 1 mM
Outline: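 Culture supernatant diluted and mixed with reagent of phosphate buffer pH 7.0, 1.0 M D-glucose, 3 mM DCIP, 3 mM 1-m-PMS and methanol (0.1:1:0.14:0.2:0.06). DCIP absorbance decrease at 600 nm followed; proflavin hydrochloride in methanol replaced methanol at 1 mM final. Activity expressed as % of inhibitor-free blank.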

| Molecule | Relative Activity [%] 1,10-Phenanthroline [1] [%] | Relative Activity [%] Proflavin hydrochloride [2] [%] |
| --- | --- | --- |
| G426S: modified GLD: SEQ ID NO: 1 with substitution G426S (protein, listed as Aspergillus terreus, SIGNAL (1)..(19)) MLGKLSFLSALSLAVAAPLSNSTSAKYDYIVIGGGTSGLAVANRLSEDPNVNVLILEAGGSVWNNPNVTNVDGYGLAFGSDIDWQYQSVNQPYGGNLSQVLRAGKALGGTSTINGMAYTRAEDVQIDAWETIGNTGWTWKNLFPYYRKSENFTVPTKSQTSLGASYEAGAHGHEGPLDVAFTQIESNNLTTYLNRTFQGMGLPWTEDVNGGKMRGFNLYPSTVNLEEYVREDAARAYYWPYKSRPNLHVLLNTFANRIVWDGEAHDGHITASGVEITSRNGTVRVINAEKEVIVSAGALKSPAILELSGIGNPSVLDKHNIPVKVNLPTVGENLQDQVNSHMDASGNTSISGTKAVSYPDVYDVFGDEAESVAKQIRANLKQYAADTAKANGNIMKAADLERLFEVQYDLIFKGRVPIAEVLNYPSSATSVFAEFWALLPFARGSVHIGSSNPAEFPVINPNYFMLDWDAKSYVAVAKYIRRSFESYPLSSIVKESTPGYDVIPRNASEQSWKEWVFDKNYRSNFHPVGTAAMMPREIGGVVDERLNVYGTTNVRVVDASVLPFQVCGHLVSTLYAVAERAADLIKADAGRR | 80.9 | 58.0 |
| G426T: modified GLD: SEQ ID NO: 1 with substitution G426T (protein, listed as Aspergillus terreus, SIGNAL (1)..(19)) MLGKLSFLSALSLAVAAPLSNSTSAKYDYIVIGGGTSGLAVANRLSEDPNVNVLILEAGGSVWNNPNVTNVDGYGLAFGSDIDWQYQSVNQPYGGNLSQVLRAGKALGGTSTINGMAYTRAEDVQIDAWETIGNTGWTWKNLFPYYRKSENFTVPTKSQTSLGASYEAGAHGHEGPLDVAFTQIESNNLTTYLNRTFQGMGLPWTEDVNGGKMRGFNLYPSTVNLEEYVREDAARAYYWPYKSRPNLHVLLNTFANRIVWDGEAHDGHITASGVEITSRNGTVRVINAEKEVIVSAGALKSPAILELSGIGNPSVLDKHNIPVKVNLPTVGENLQDQVNSHMDASGNTSISGTKAVSYPDVYDVFGDEAESVAKQIRANLKQYAADTAKANGNIMKAADLERLFEVQYDLIFKGRVPIAEVLNYPTSATSVFAEFWALLPFARGSVHIGSSNPAEFPVINPNYFMLDWDAKSYVAVAKYIRRSFESYPLSSIVKESTPGYDVIPRNASEQSWKEWVFDKNYRSNFHPVGTAAMMPREIGGVVDERLNVYGTTNVRVVDASVLPFQVCGHLVSTLYAVAERAADLIKADAGRR | 88.5 | 58.4 |
| F432V: modified GLD: SEQ ID NO: 1 with substitution F432V (protein, listed as Aspergillus terreus, SIGNAL (1)..(19)) MLGKLSFLSALSLAVAAPLSNSTSAKYDYIVIGGGTSGLAVANRLSEDPNVNVLILEAGGSVWNNPNVTNVDGYGLAFGSDIDWQYQSVNQPYGGNLSQVLRAGKALGGTSTINGMAYTRAEDVQIDAWETIGNTGWTWKNLFPYYRKSENFTVPTKSQTSLGASYEAGAHGHEGPLDVAFTQIESNNLTTYLNRTFQGMGLPWTEDVNGGKMRGFNLYPSTVNLEEYVREDAARAYYWPYKSRPNLHVLLNTFANRIVWDGEAHDGHITASGVEITSRNGTVRVINAEKEVIVSAGALKSPAILELSGIGNPSVLDKHNIPVKVNLPTVGENLQDQVNSHMDASGNTSISGTKAVSYPDVYDVFGDEAESVAKQIRANLKQYAADTAKANGNIMKAADLERLFEVQYDLIFKGRVPIAEVLNYPGSATSVVAEFWALLPFARGSVHIGSSNPAEFPVINPNYFMLDWDAKSYVAVAKYIRRSFESYPLSSIVKESTPGYDVIPRNASEQSWKEWVFDKNYRSNFHPVGTAAMMPREIGGVVDERLNVYGTTNVRVVDASVLPFQVCGHLVSTLYAVAERAADLIKADAGRR | 80.2 | 70.3 |
| G426V: modified GLD: SEQ ID NO: 1 with substitution G426V (protein, listed as Aspergillus terreus, SIGNAL (1)..(19)) MLGKLSFLSALSLAVAAPLSNSTSAKYDYIVIGGGTSGLAVANRLSEDPNVNVLILEAGGSVWNNPNVTNVDGYGLAFGSDIDWQYQSVNQPYGGNLSQVLRAGKALGGTSTINGMAYTRAEDVQIDAWETIGNTGWTWKNLFPYYRKSENFTVPTKSQTSLGASYEAGAHGHEGPLDVAFTQIESNNLTTYLNRTFQGMGLPWTEDVNGGKMRGFNLYPSTVNLEEYVREDAARAYYWPYKSRPNLHVLLNTFANRIVWDGEAHDGHITASGVEITSRNGTVRVINAEKEVIVSAGALKSPAILELSGIGNPSVLDKHNIPVKVNLPTVGENLQDQVNSHMDASGNTSISGTKAVSYPDVYDVFGDEAESVAKQIRANLKQYAADTAKANGNIMKAADLERLFEVQYDLIFKGRVPIAEVLNYPVSATSVFAEFWALLPFARGSVHIGSSNPAEFPVINPNYFMLDWDAKSYVAVAKYIRRSFESYPLSSIVKESTPGYDVIPRNASEQSWKEWVFDKNYRSNFHPVGTAAMMPREIGGVVDERLNVYGTTNVRVVDASVLPFQVCGHLVSTLYAVAERAADLIKADAGRR | 90.3 | 59.9 |
| G426W: modified GLD: SEQ ID NO: 1 with substitution G426W (protein, listed as Aspergillus terreus, SIGNAL (1)..(19)) MLGKLSFLSALSLAVAAPLSNSTSAKYDYIVIGGGTSGLAVANRLSEDPNVNVLILEAGGSVWNNPNVTNVDGYGLAFGSDIDWQYQSVNQPYGGNLSQVLRAGKALGGTSTINGMAYTRAEDVQIDAWETIGNTGWTWKNLFPYYRKSENFTVPTKSQTSLGASYEAGAHGHEGPLDVAFTQIESNNLTTYLNRTFQGMGLPWTEDVNGGKMRGFNLYPSTVNLEEYVREDAARAYYWPYKSRPNLHVLLNTFANRIVWDGEAHDGHITASGVEITSRNGTVRVINAEKEVIVSAGALKSPAILELSGIGNPSVLDKHNIPVKVNLPTVGENLQDQVNSHMDASGNTSISGTKAVSYPDVYDVFGDEAESVAKQIRANLKQYAADTAKANGNIMKAADLERLFEVQYDLIFKGRVPIAEVLNYPWSATSVFAEFWALLPFARGSVHIGSSNPAEFPVINPNYFMLDWDAKSYVAVAKYIRRSFESYPLSSIVKESTPGYDVIPRNASEQSWKEWVFDKNYRSNFHPVGTAAMMPREIGGVVDERLNVYGTTNVRVVDASVLPFQVCGHLVSTLYAVAERAADLIKADAGRR | 61.0 | 47.8 |
| G426Y: modified GLD: SEQ ID NO: 1 with substitution G426Y (protein, listed as Aspergillus terreus, SIGNAL (1)..(19)) MLGKLSFLSALSLAVAAPLSNSTSAKYDYIVIGGGTSGLAVANRLSEDPNVNVLILEAGGSVWNNPNVTNVDGYGLAFGSDIDWQYQSVNQPYGGNLSQVLRAGKALGGTSTINGMAYTRAEDVQIDAWETIGNTGWTWKNLFPYYRKSENFTVPTKSQTSLGASYEAGAHGHEGPLDVAFTQIESNNLTTYLNRTFQGMGLPWTEDVNGGKMRGFNLYPSTVNLEEYVREDAARAYYWPYKSRPNLHVLLNTFANRIVWDGEAHDGHITASGVEITSRNGTVRVINAEKEVIVSAGALKSPAILELSGIGNPSVLDKHNIPVKVNLPTVGENLQDQVNSHMDASGNTSISGTKAVSYPDVYDVFGDEAESVAKQIRANLKQYAADTAKANGNIMKAADLERLFEVQYDLIFKGRVPIAEVLNYPYSATSVFAEFWALLPFARGSVHIGSSNPAEFPVINPNYFMLDWDAKSYVAVAKYIRRSFESYPLSSIVKESTPGYDVIPRNASEQSWKEWVFDKNYRSNFHPVGTAAMMPREIGGVVDERLNVYGTTNVRVVDASVLPFQVCGHLVSTLYAVAERAADLIKADAGRR | 61.6 | 47.5 |
| F432T: modified GLD: SEQ ID NO: 1 with substitution F432T (protein, listed as Aspergillus terreus, SIGNAL (1)..(19)) MLGKLSFLSALSLAVAAPLSNSTSAKYDYIVIGGGTSGLAVANRLSEDPNVNVLILEAGGSVWNNPNVTNVDGYGLAFGSDIDWQYQSVNQPYGGNLSQVLRAGKALGGTSTINGMAYTRAEDVQIDAWETIGNTGWTWKNLFPYYRKSENFTVPTKSQTSLGASYEAGAHGHEGPLDVAFTQIESNNLTTYLNRTFQGMGLPWTEDVNGGKMRGFNLYPSTVNLEEYVREDAARAYYWPYKSRPNLHVLLNTFANRIVWDGEAHDGHITASGVEITSRNGTVRVINAEKEVIVSAGALKSPAILELSGIGNPSVLDKHNIPVKVNLPTVGENLQDQVNSHMDASGNTSISGTKAVSYPDVYDVFGDEAESVAKQIRANLKQYAADTAKANGNIMKAADLERLFEVQYDLIFKGRVPIAEVLNYPGSATSVTAEFWALLPFARGSVHIGSSNPAEFPVINPNYFMLDWDAKSYVAVAKYIRRSFESYPLSSIVKESTPGYDVIPRNASEQSWKEWVFDKNYRSNFHPVGTAAMMPREIGGVVDERLNVYGTTNVRVVDASVLPFQVCGHLVSTLYAVAERAADLIKADAGRR | 89.9 | 80.2 |
| V431F: modified GLD: SEQ ID NO: 1 with substitution V431F (protein, listed as Aspergillus terreus, SIGNAL (1)..(19)) MLGKLSFLSALSLAVAAPLSNSTSAKYDYIVIGGGTSGLAVANRLSEDPNVNVLILEAGGSVWNNPNVTNVDGYGLAFGSDIDWQYQSVNQPYGGNLSQVLRAGKALGGTSTINGMAYTRAEDVQIDAWETIGNTGWTWKNLFPYYRKSENFTVPTKSQTSLGASYEAGAHGHEGPLDVAFTQIESNNLTTYLNRTFQGMGLPWTEDVNGGKMRGFNLYPSTVNLEEYVREDAARAYYWPYKSRPNLHVLLNTFANRIVWDGEAHDGHITASGVEITSRNGTVRVINAEKEVIVSAGALKSPAILELSGIGNPSVLDKHNIPVKVNLPTVGENLQDQVNSHMDASGNTSISGTKAVSYPDVYDVFGDEAESVAKQIRANLKQYAADTAKANGNIMKAADLERLFEVQYDLIFKGRVPIAEVLNYPGSATSFFAEFWALLPFARGSVHIGSSNPAEFPVINPNYFMLDWDAKSYVAVAKYIRRSFESYPLSSIVKESTPGYDVIPRNASEQSWKEWVFDKNYRSNFHPVGTAAMMPREIGGVVDERLNVYGTTNVRVVDASVLPFQVCGHLVSTLYAVAERAADLIKADAGRR | 82.1 | 57.7 |
